Laboratory results as given in US20110243992.

Test system: iron co-factored superoxide dismutase (SodA) of M. tuberculosis/BCG, wild type, as produced by BCG

Substance: mutant SodA ΔE54 (also contains H28R substitution)
- total SOD activity, 3D-BCG (ΔE54 SodA mutant put into DD-BCG) versus DD-BCG: FIG. 16; 16-fold reduction
- total SOD activity, ΔE54 SodA mutant in BCG or SIG-BCG: FIGS. 4, 14; 2- to 4-fold reduction
